{"source": "patent US20100278838A1", "about": "“EPHA2 MONOCLONAL ANTIBODIES AND METHODS OF USE THEREOF” (MEDIMMUNE, LLC, priority 2002, published 2010)", "molecules": {"B1": {"name": "Eph099B-208.261: EphA2 monoclonal antibody; hybridoma ATCC PTA-4573; VL SEQ ID NO:1, VH SEQ ID NO:5 (antibody, listed as Homo sapiens, V domains shown)", "VH": "QVQLQQPGAELVKPGASVKLSCKASGYTFTSYWMHWVKQRPGQGLEWIGMIHPNSGSTNYNEKFKSKATLTVDKSSSTAYMRLSSLTSEDSAVYYCARGGNMVGGGYWGQGTTLTVSS", "VL": "QIVLTQSPALMSASPGEKVTMTCSASSSVSYMYWYQQKPRSSPKPWIYLTTNLASGVPARFSGSGSGTSYSLTISSMEAEDAATYYCQQWSSNPFTFGSGTKLEIR"}, "B2": {"name": "Eph099B-233.152: EphA2 monoclonal antibody; hybridoma ATCC PTA-5194; VL SEQ ID NO:17, VH SEQ ID NO:21 (antibody, listed as Homo sapiens, V domains shown)", "VH": "EVKLVESGGGLVQPGGSLSLSCAASGFTFTDYSMNWVRQPPGKALEWLGFIRNKANDYTTEYSASVKGRFTISRDNSQSILYLQMNALRAEDSATYYCVRYPRYHAMDSWGQGTSVTVSS", "VL": "DIVLTQSPATLSVTPGDSVNLSCRASQSISNNLHWYQQKSHESPRLLIKYVFQSISGIPSRFSGSGSGTDFTLSINSVETEDFGMYFCQQSNSWPLTFGAGTKLELK"}, "B3": {"name": "EA2: EphA2 agonistic monoclonal antibody; ATCC deposit no. PTA-4380; co-pending application Ser. No. 10/436,783; VL SEQ ID NO:33, VH SEQ ID NO:37 (antibody, listed as Homo Sapiens, V domains shown)", "VH": "DVKLVESGGGLVKPGGSLKLSCAASGFTFSSYTMSWVRQTPEKRLEWVATISSGGTYTYYPDSVKGRFTISRDNAKNTLYLQMSSLKSEDTAMYYCTREAIFTYWGQGTLVTVSA", "VL": "DIKMTQSPSSMYASLGERVTITCKASQDINNYLSWFQQKPGKSPKTLIYRANRLVDGVPSRFSGSGSGQDYSLTISSLEYEDMGIYYCLKYDEFPYTFGGGTKLEIK"}}, "key": {"EphA2": {"tested_on": "EphA2", "sequence (P29317 24-976)": "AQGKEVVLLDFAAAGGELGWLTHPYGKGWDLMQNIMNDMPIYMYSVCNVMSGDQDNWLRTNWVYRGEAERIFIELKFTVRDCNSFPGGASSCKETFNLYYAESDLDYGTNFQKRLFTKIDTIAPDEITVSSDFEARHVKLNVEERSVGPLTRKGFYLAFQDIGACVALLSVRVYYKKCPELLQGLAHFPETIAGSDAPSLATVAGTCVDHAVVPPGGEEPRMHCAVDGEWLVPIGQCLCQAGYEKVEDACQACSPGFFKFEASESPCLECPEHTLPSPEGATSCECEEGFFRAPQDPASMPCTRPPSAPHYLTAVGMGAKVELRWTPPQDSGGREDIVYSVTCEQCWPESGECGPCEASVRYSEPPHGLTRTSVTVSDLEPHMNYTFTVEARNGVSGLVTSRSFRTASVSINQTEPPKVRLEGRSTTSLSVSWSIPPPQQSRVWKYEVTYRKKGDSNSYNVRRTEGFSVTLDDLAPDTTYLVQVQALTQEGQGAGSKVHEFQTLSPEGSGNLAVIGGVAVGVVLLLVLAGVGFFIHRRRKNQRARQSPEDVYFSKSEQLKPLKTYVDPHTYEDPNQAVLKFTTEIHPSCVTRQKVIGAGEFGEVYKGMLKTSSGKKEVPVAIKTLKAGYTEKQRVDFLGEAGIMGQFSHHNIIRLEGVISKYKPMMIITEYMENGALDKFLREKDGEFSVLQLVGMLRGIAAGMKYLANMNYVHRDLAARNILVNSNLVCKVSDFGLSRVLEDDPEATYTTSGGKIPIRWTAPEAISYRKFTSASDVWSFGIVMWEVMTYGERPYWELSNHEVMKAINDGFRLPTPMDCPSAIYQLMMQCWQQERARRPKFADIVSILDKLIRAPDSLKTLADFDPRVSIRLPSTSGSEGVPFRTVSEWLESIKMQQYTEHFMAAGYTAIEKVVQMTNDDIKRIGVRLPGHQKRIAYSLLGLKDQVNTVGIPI", "assay": "EphA2 tyrosine phosphorylation in MDA-MB-231 cells (immunoprecipitation, phosphotyrosine western blot)", "assay_type": "cell-based", "details": "MDA-MB-231 monolayers, single dose 5 μg/ml, 37° C.", "procedure": "FIGS. 2A-2D: EphA2 antibodies promote EphA2 tyrosine phosphorylation in MDA-MB-231 cells. Monolayers of MDA-MB-231 cells were incubated in the presence of a single dose of 5 μg/ml (A, C) Eph099B-208.261 or (B, D) EA2 for the indicated time at 37° C. Cell lysates were then immunoprecipitated with an EphA2-specific antibody, resolved by SDS-PAGE and subjected to western blot analysis with a phosphotyrosine-specific antibody (A, B). The membranes were stripped and re-probed with the EphA2-specific antibody used in the immunoprecipitation as a loading control (C, D).\nMonolayers of MDA-MB-231 cells were incubated in the presence of a single dose of 5 μg/ml Eph099B-233.152 at 37° C. Cell lysates were then immunoprecipitated with D7 (an EphA2-specific antibody), resolved by SDS-PAGE and subjected to western blot analysis with (A) a phosphotyrosine-specific antibody or (B) an EphA2-specific antibody.\nEphA2 antibodies promoted tyrosine phosphorylation and degradation of EphA2 in MDA-MB-231 cells. Monolayers of cells were incubated in the presence of EphA2 agonistic antibodies or control at 37° C. Cell lysates were then immunoprecipitated with an EphA2-specific antibody (D7, purchased from Upstate Biologicals, Inc., Lake Placid, N.Y. and deposited with the American Type […] Collection on Dec. 8, 2000, and assigned ATCC number PTA 2755), resolved by SDS-PAGE and subjected to western blot analysis with a phosphotyrosine-specific antibody (PY20 or 4G10, purchased from Upstate Biologicals, Inc., Lake Placid, N.Y.). […] Some membranes were stripped and re-probed with the EphA2-specific antibody used in the immunoprecipitation (D7) as a loading control (FIGS. 2C-2D).\nWestern blot analyses and immunoprecipitations were performed as described previously (Zantek et al., 1999, Cell Growth Diff. 10:629-38, which is incorporated by reference in its entirety). […] Antibody binding was detected by enhanced chemiluminescence (Pierce, Rockford, Ill.) and autoradiography (Kodak X-OMAT; Rochester, N.Y.)."}, "[1]": {"tested_on": "MDA-MB-231 breast cancer cells implanted subcutaneously", "assay": "Tumor growth and survival in vivo, MDA-MB-231 implanted subcutaneously", "design": "species or system athymic mice", "details": "for Growth of MDA-MB-231 cells implanted subcutaneously: 6mg/kg intraperitoneally twice a week for 3 weeks, versus PBS or 1A7", "procedure": "MDA-MB-231 cells were implanted subcutaneously into athymic mice. After the tumors had grown to an average volume of 100 mm^3, mice were administered 6 mg/ml Eph099B-233.152 or PBS control intraperitoneally twice a week for 3 weeks. (A) Tumor Growth. Tumor growth was assessed and expressed as a ratio of the tumor volume divided by initial tumor volume (100 mm^3). Control mice are indicated by circles and Eph099B-233.152-treated mice are indicated by squares. Arrows indicate time of Eph099B-233.152 or PBS administration. (B) Survival. Tumor growth was allowed to proceed until tumor volume reached 1000 mm^3. Survival of the mice was assessed by scoring the percent of mice living each day post treatment. Control mice are indicated by grey and Eph099B-233.152-treated mice are indicated by black.\nFIGS. 7A-7D: The EphA2 antibodies, EA2, Eph099B-208.261, and Eph099B-233.152, inhibit tumor cell growth in vivo. MDA-MB-231 breast cancer cells were implanted (A) orthotopically or (B) subcutaneously into athymic mice. (C) A549 lung cancer cells were implanted subcutaneously into athymic mice. After the tumors had grown to an average volume of 100 mm^3, mice were administered 6 mg/kg of the indicated antibody or negative control (PBS or 1A7 antibody) intraperitoneally twice a week for 3 weeks. Tumor growth was assessed and expressed as a ratio of the tumor volume divided by initial tumor volume (100 mm^3). (D) MDA-MB-231 breast cancer cells were implanted subcutaneously into athymic mice. After the tumors had grown to an average volume of 100 mm^3, mice were administered 6 mg/kg of the indicated antibody or negative control intraperitoneally twice a week for 3 weeks. Total tumor volume was determined after sacrifice. Negative control is black, EA2 is white, Eph099B-208.261 is dark grey, and Eph099B-233.152 is light grey.\nThe ability of the antibodies of the invention to inhibit tumor cancer growth in vivo was assayed. Eph099B-233.152 can inhibit tumor cell growth in vivo and extend survival time of tumor-bearing mice. Briefly, 5×10^6 MDA-MB-231 breast cancer cells were implanted subcutaneously into athymic mice. After the tumors had grown to an average volume of 100mm^3, mice were administered 6mg/ml Eph099B-233.152 or PBS control intraperitoneally twice a week for 3 weeks. Tumor growth was assessed and expressed as a ratio of the tumor volume divided by initial tumor volume (100 mm^3). […] Tumor growth was allowed to proceed until tumor volume reached 1000 mm^3. Survival of the mice was assessed by scoring the percent of mice living each day post treatment. […] By day 36, all of the mice in the control group had died in contrast with only 70% of the mice admixture Eph099B-233.152.\n5×10^6MDA-MB-231 breast cancer cells were implanted orthotopically or subcutaneously and 5×10^6 A549 lung cancer cells were implanted subcutaneously into athymic mice. After the tumors had grown to an average volume of 100 mm^3, mice were administered 6mg/kg of an EphA2 agonistic antibody or negative control (PBS or 1A7 antibody) intraperitoneally twice a week for 3 weeks. Animals were generally sacrificed at least two weeks after the last treatment or when tumors exceeded 2000 mm^3. Tumor growth was assessed and expressed either as a ratio of the tumor volume divided by initial tumor volume (100 mm^3) or as total tumor volume. Growth of MDA-MB-231 cells implanted orthotopically was inhibited by EA2 (FIG. 7A). Growth of MDA-MB-231 cells implanted subcutaneously was inhibited by EA2, Eph099B-208.261, and Eph099B-233.152 (FIG. 7B, D). Growth of A549 cells implanted subcutaneously was inhibited by EA2, or Eph099B-208.261 (FIG. 7C)."}}, "note": "“Also recorded” adds a separate entry of the source."}
{"molecule": "B1", "values": [{"measurement": "EphA2 tyrosine phosphorylation", "setting": "EphA2", "value": "increased EphA2 phosphorylation"}, {"measurement": "Growth of MDA-MB-231 cells implanted subcutaneously", "setting": "[1]", "value": "inhibited"}]}
{"molecule": "B2", "values": [{"measurement": "EphA2 tyrosine phosphorylation", "setting": "EphA2", "value": "increased EphA2 phosphorylation; also recorded: promotes EphA2 tyrosine phosphorylation"}, {"measurement": "Growth of MDA-MB-231 cells implanted subcutaneously", "setting": "[1]", "value": "inhibited"}, {"measurement": "Mice that had died by day 36", "setting": "[1]; 6mg/ml intraperitoneally twice a week for 3 weeks, all control mice had died", "value": 70, "unit": "%"}, {"measurement": "Survival of the mice (percent of mice living each day post treatment)", "setting": "[1]; 6mg/ml intraperitoneally twice a week for 3 weeks, versus PBS", "value": "A greater percentage of mice survived at each time point examined"}, {"measurement": "Tumor growth (tumor volume divided by initial tumor volume)", "setting": "[1]; 6mg/ml intraperitoneally twice a week for 3 weeks, versus PBS, after 30 days", "value": "smaller tumors than mice administered PBS; also recorded: inhibits tumor cell growth in vivo"}]}
{"molecule": "B3", "values": [{"measurement": "EphA2 tyrosine phosphorylation", "setting": "EphA2", "value": "increased EphA2 phosphorylation"}, {"measurement": "Growth of MDA-MB-231 cells implanted subcutaneously", "setting": "[1]", "value": "inhibited"}]}
